Experiment [1] concerns the target Gal-4 AD-RAR-γ fusion protein (Gal-4 activation domain joined to RAR-γ, from pACT-RAR-γ) (yeast; human) (UniProt P13631). In words: cell-based or functional assay.
Experiment [2] concerns the target T1, bacterially expressed glutathione-S-transferase (GST)-RAR-γ fusion protein (human) (UniProt P13631).
T1 sequence (looked up): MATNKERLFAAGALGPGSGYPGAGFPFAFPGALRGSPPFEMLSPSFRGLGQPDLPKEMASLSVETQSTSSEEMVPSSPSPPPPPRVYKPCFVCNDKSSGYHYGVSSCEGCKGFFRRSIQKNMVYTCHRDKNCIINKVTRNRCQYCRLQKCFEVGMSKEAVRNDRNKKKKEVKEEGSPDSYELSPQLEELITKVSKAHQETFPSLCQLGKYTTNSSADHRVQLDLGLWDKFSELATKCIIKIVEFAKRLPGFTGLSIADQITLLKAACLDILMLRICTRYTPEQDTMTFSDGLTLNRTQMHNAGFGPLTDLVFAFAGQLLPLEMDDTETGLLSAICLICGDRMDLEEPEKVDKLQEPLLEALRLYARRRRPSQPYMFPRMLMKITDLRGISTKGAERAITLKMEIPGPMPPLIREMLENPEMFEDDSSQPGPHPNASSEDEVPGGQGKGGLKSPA
In words: GST pull-down: 35S-labeled N-CoR-C' on GST-RAR-γ beads, incubation 20 minutes at 20° C.; phosphoimager quantitation.

The target in experiment [3] is T1, bacterially expressed glutathione-S-transferase (GST)-RAR-γ fusion protein (human). In words: GST pull-down: 35S-labeled N-CoR-C' on GST-RAR-γ beads, incubation 20 minutes at 30° C.; phosphoimager quantitation.
The target is the same in experiment [4]. In words: GST pull-down: 35S-labeled N-CoR-C' on GST-RAR-γ beads, incubation 20 minutes at 37° C.; phosphoimager quantitation.

Regarding “GAL-4 DBD-N-CoR fusion protein (GAL-4 DNA binding domain fused to the full length N-CoR polypeptide, from pAS-N-CoR) (from UniProt P04386 1-147; Q60974 1-2453)”, in experiment [1], the Units of β-galactosidase activity, yeast two-hybrid in Y190; 1 µM AGN 193109, Triplicate 1 was determined as 5.91 units; the Units of β-galactosidase activity, yeast two-hybrid in Y190; 1 µM AGN 193109, Triplicate 2 was determined as 4.43 units; the Units of β-galactosidase activity, yeast two-hybrid in Y190; 1 µM AGN 193109, Triplicate 3 turned out to be 4.15 units; the Units of β-galactosidase activity, yeast two-hybrid in Y190; 1 µM TTNPB, Triplicate 1 stood at 2.26 units. In addition, in experiment [1], the Units of β-galactosidase activity, yeast two-hybrid in Y190; 1 µM TTNPB, Triplicate 2 stood at 1.83 units; the Units of β-galactosidase activity, yeast two-hybrid in Y190; 1 µM TTNPB, Triplicate 3 was 1.96 units; the Units of β-galactosidase activity, yeast two-hybrid in Y190; Control (DMSO), Triplicate 1 amounted to 2.18 units; the Units of β-galactosidase activity, yeast two-hybrid in Y190; Control (DMSO), Triplicate 2 came out at 2.12 units. In experiment [1], this molecule displayed a Units of β-galactosidase activity, yeast two-hybrid in Y190; Control (DMSO), Triplicate 3 of 1.69 units; a β-Galactosidase Activity (units), yeast two-hybrid in Y190; 1 µM AGN 194310 of 5.1 units; a β-Galactosidase Activity (units), yeast two-hybrid in Y190; Control (DMSO) of 0.82 units.

B1: [35S]-radiolabeled in vitro translated N-CoR-C' (C-terminus of N-CoR, amino acids 1629-2453) (protein, UniProt Q60974 1629-2453, looked up)
chain: MQVNLRPDVTRGLSPREQPLGLPYPATRGIIDLTNMPPTILVPHAGGTSTPPMDRITYIPGTQVTFPPRPYNAASLSPGHPTHLAAAASAEREREREREKERERERERERERERERIAAAPADLYLRPGSEQPGRPGSHGYVRSPSPSVRTQETILQQRPSVFQGTNGTSVITPLDPTAQLRIMPLPSGGPSISQGLPASRYNTAADALAALVDAAASAPQMDVSKTKESKHEAARLEENLRSRSAAVSEQQQLEQKNLEVEKRSVQCVCTSSALPSGKAQPHASVVYSEAGKDKGPPPKSRYEEELRTRGKTTITAANFIDVIITRQIASDKDARERGSQSSDSSSSLSSHRYETASDAIEVISPASSPAPPQEKPQAYQPDMVKANQAENESTRQYEGPLHHYRSQQESPSPQQQPPLPPSSQSEGMGQVPRTHRLITLADHICQIITQDFARNQVPSQASTSTFQTSPSALSSTPVRTKTSSRYSPESQSQTVLHPRPGPRVSPENLVDKSRGSRPGKSPERSHIPSEPYEPISPPQGPAVHEKQDSMLLLSQRGVDPAEQRSDSRSPGSISYLPSFFTKLESTSPMVKSKKQEIFRKLNSSGGGDSDMAAAQPGTEIFNLPAVTTSGAVSSRSHSFADPASNLGLEDIIRKALMGSFDDKVEDHGVVMSHPVGIMPGSASTSVVTSSEARRDEGEPSPHAGVCKPKLINKSNSRKSKSPIPGQSYLGTERPSSVSSVHSEGDYHRQTPGWAWEDRPSSTGSTQFPYNPLTIRMLSSTPPTQIACAPSAITQAAPHQQNRIWEREPAPLLSAQYETLSDSDD
modifications: 35S-methionine radiolabel
In experiment [2], B1 had a fold decrease in N-CoR binding (1 µM TTNPB against vehicle alone, 20° C.) of 2.6 fold and a fold increase in N-CoR binding (1 µM AGN 193109 against vehicle alone, 20° C.) of 1.6 fold. Further, in experiment [3], the fold decrease in N-CoR interaction with RAR (1 µM TTNPB against vehicle alone, 30° C.) is 4.5 fold and the fold increase in N-CoR interaction with RAR (1 µM AGN 193109 against vehicle alone, 30° C.) is 2.2 fold. In experiment [4], the fold increase in interaction between RAR and N-CoR (1 µM AGN 193109 against vehicle alone, 37° C.) was found to be 20.5 fold.

These data come from patent publication US6942980.
